Experimental data taken from the supplement of paper PMC7877785.
± gives the uncertainty stated by the source.

Test: self-splicing fitness, log relative to wild type (ln ratio); higher = more splicing; Tetrahymena group I intron in knt gene, E. coli kanamycin selection, DiMSum; sequences stand for … in CUCUCU…GGAGGGAAAAGUUAUCAGGCAUGCACCUGGUAGCUAGUCUUUAAACCAAUAGAUUGCAUCGGUUUAAAAGGCAAGACCGUCAAAUUGCGGGAAAGGGGUCAACAGCCGUUCAGUACCAAGUCUCAGGGGAAACUUUGAGAUGGCCUUGCAAAGGGUAUGGUAAUAAGCUGACGGACAUGGUCCUAACCACGCAGCCAAGUCCUAAGUCAACAGAUCUUCUGUUGAUAUGGAUGCAGUUCACAGACUAAAUGUCGGUCGGGGAAGAUGUAUUCUUCUCAUAAGAUAUAGUCGGACCUCUCCUUAAUGGGAGCUAGCGGAUGAAGUGAUGCAACACUGGAGCCGCUGGGAACUAAUUUGUAUGCGAAAGUAUAUUGAUUAGUUUUGGAGUACUCGUGGUCG
Procedure, shortened: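 Pooled colonies went to amplicon sequencing on an Illumina HiSeq 2500 after six replicate transformations. The plates were LB agar with 100 μg/mL carbenicillin, 50 μM IPTG and 0.2% rhamnose, with or without 25 μg/mL kanamycin, incubated overnight at 37°C or 30°C. The E. coli BL21(DE3) library had all eight P1ex-region intron nucleotides randomised, the intron placed in the knt kanamycin-resistance gene on pET-22b(+). DiMSum fitness is the error-weighted combination of replicate fold changes, kanamycin against none, normalised to wild type.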

| Sequence | self-splicing fitness (ln) (30 °C) | self-splicing fitness (ln) (37 °C) |
| --- | --- | --- |
| GUCAAGCAAUAUUACGUAUU | -2.98 ± 0.12 | -1.84 ± 0.1 |
| GUCAAGCAAUAUUACGUCCA | -2.58 ± 0.25 | -0.387 ± 0.12 |
| GUCAAGCAAUAUUACGUCCG |  | -3.83 ± 0.39 |
| GUCAAGCAAUAUUACGUGUG | -2.69 ± 0.068 | -1.61 ± 0.071 |
| GUCCAGCAAUAUUACGACGU | 0.172 ± 0.091 | 0.365 ± 0.085 |
| GUCCAGCAAUAUUACGAUAU | -0.337 ± 0.056 | 0.114 ± 0.065 |
| GUCCAGCAAUAUUACGAUCA | -0.611 ± 0.12 | -0.93 ± 0.13 |
| GUCCAGCAAUAUUACGCAAG | -1.32 ± 0.12 | -1.28 ± 0.14 |
| GUCCAGCAAUAUUACGCAGC | -0.998 ± 0.17 | 0.198 ± 0.14 |
| GUCCAGCAAUAUUACGCCAA | -2.63 ± 0.18 | -2.72 ± 0.16 |
| GUCCAGCAAUAUUACGCCAC | -2.51 ± 0.44 |  |
| GUCCAGCAAUAUUACGCCUU | -0.571 ± 0.1 | -0.309 ± 0.11 |
| GUCCAGCAAUAUUACGCUCC | -0.889 ± 0.17 | -0.563 ± 0.2 |
| GUCCAGCAAUAUUACGCUUA | -0.882 ± 0.067 | -0.314 ± 0.07 |
| GUCCAGCAAUAUUACGGAGG | -1.76 ± 0.06 | -1.17 ± 0.078 |
| GUCCAGCAAUAUUACGGCCG | -3.67 ± 0.24 | -2.69 ± 0.19 |
| GUCCAGCAAUAUUACGGCGA | -1.32 ± 0.12 | -0.997 ± 0.14 |
| GUCCAGCAAUAUUACGGCUG | -3.93 ± 0.31 | -3.61 ± 0.39 |
| GUCCAGCAAUAUUACGGUAC | -2.97 ± 0.18 | -1.92 ± 0.17 |
| GUCCAGCAAUAUUACGGUCG | -0.533 ± 0.071 | -0.131 ± 0.097 |
| GUCCAGCAAUAUUACGGUGA | -0.608 ± 0.051 | -0.131 ± 0.071 |
| GUCCAGCAAUAUUACGGUGG | -3.36 ± 0.15 | -2.71 ± 0.12 |
| GUCCAGCAAUAUUACGUACA | -1.73 ± 0.1 | -0.367 ± 0.1 |
| GUCCAGCAAUAUUACGUCCG | -4.42 ± 0.29 | -0.283 ± 0.22 |
| GUCCAGCAAUAUUACGUCGC | -0.994 ± 0.096 | 0.0208 ± 0.12 |

| Sequence | self-splicing fitness (ln) (30 °C) | self-splicing fitness (ln) (37 °C) |
| --- | --- | --- |
| GUCCAGCAAUAUUACGUCGG | -3.83 ± 0.41 | -1.39 ± 0.2 |
| GUCCAGCAAUAUUACGUCUG | -3.8 ± 0.47 | -2.47 ± 0.33 |
| GUCCAGCAAUAUUACGUGAC | -1.23 ± 0.13 | -1.93 ± 0.16 |
| GUCCAGCAAUAUUACGUGAG | 0.151 ± 0.044 | 0.375 ± 0.065 |
| GUCCAGCAAUAUUACGUGGG | -3.68 ± 0.13 | -2.36 ± 0.14 |
| GUCCAGCAAUAUUACGUUAA | -1.64 ± 0.1 | -0.751 ± 0.079 |
| GUCCAGCAAUAUUACGUUAC | -1.55 ± 0.089 | -0.179 ± 0.1 |
| GUCCAGCAAUAUUACGUUGC | -2.05 ± 0.13 | -0.538 ± 0.16 |
| GUCCAGCAAUAUUACGUUUG | -2.85 ± 0.11 | -0.981 ± 0.1 |
| GUCGAGCAAUAUUACGAAAC | -2.72 ± 0.41 | -0.657 ± 0.37 |
| GUCGAGCAAUAUUACGAACA | -1.67 ± 0.37 | -0.344 ± 0.29 |
| GUCGAGCAAUAUUACGAAUC | -1.52 ± 0.11 | -0.929 ± 0.15 |
| GUCGAGCAAUAUUACGACUU | -1.88 ± 0.27 | -1.3 ± 0.32 |
| GUCGAGCAAUAUUACGCAAA | -2.51 ± 0.39 |  |
| GUCGAGCAAUAUUACGCAAU | -1.08 ± 0.1 | -0.467 ± 0.14 |
| GUCGAGCAAUAUUACGCCAA | -2.68 ± 0.35 | -2.6 ± 0.48 |
| GUCGAGCAAUAUUACGCGGC | -3.88 ± 0.47 | -2.25 ± 0.39 |
| GUCGAGCAAUAUUACGCGGG | -2.85 ± 0.15 | -1.94 ± 0.19 |
| GUCGAGCAAUAUUACGGAAA | -2.83 ± 0.23 | -2.11 ± 0.22 |
| GUCGAGCAAUAUUACGGAAC | -3.01 ± 0.19 | -1.9 ± 0.2 |
| GUCGAGCAAUAUUACGGACU | -3.29 ± 0.47 | -1.73 ± 0.24 |
| GUCGAGCAAUAUUACGGCUA | -1.78 ± 0.21 | -1.47 ± 0.18 |
| GUCGAGCAAUAUUACGGGUG | -4.13 ± 0.25 | -2.11 ± 0.19 |
| GUCGAGCAAUAUUACGGGUU | -3.03 ± 0.2 | -1.04 ± 0.16 |
| GUCGAGCAAUAUUACGGUUG | -2.68 ± 0.2 | -2.15 ± 0.26 |

| Sequence | self-splicing fitness (ln) (30 °C) | self-splicing fitness (ln) (37 °C) |
| --- | --- | --- |
| GUCGAGCAAUAUUACGUAAG | -2.59 ± 0.14 | -1.34 ± 0.18 |
| GUCGAGCAAUAUUACGUCCC | -1.03 ± 0.19 | -0.687 ± 0.33 |
| GUCGAGCAAUAUUACGUGAC | -4.99 ± 0.45 | -2.57 ± 0.35 |
| GUCUAGCAAUAUUACGAAAC | -0.862 ± 0.13 | -0.29 ± 0.14 |
| GUCUAGCAAUAUUACGAAGG | -2.34 ± 0.18 | -1.43 ± 0.16 |
| GUCUAGCAAUAUUACGACUU | -1.32 ± 0.12 | -0.56 ± 0.11 |
| GUCUAGCAAUAUUACGAGGU |  | -1.99 ± 0.4 |
| GUCUAGCAAUAUUACGAUGA | -1.21 ± 0.28 | -0.329 ± 0.13 |
| GUCUAGCAAUAUUACGCAUC | -0.727 ± 0.13 | 0.171 ± 0.14 |
| GUCUAGCAAUAUUACGCCAA |  | -0.981 ± 0.29 |
| GUCUAGCAAUAUUACGCUCA | 0.346 ± 0.16 | 0.103 ± 0.19 |
| GUCUAGCAAUAUUACGCUGA | -1.21 ± 0.16 | -0.707 ± 0.13 |
| GUCUAGCAAUAUUACGCUGC |  | -2.71 ± 0.34 |
| GUCUAGCAAUAUUACGGACA | -1.63 ± 0.18 | -0.275 ± 0.14 |
| GUCUAGCAAUAUUACGGCAC | -0.276 ± 0.14 | 0.385 ± 0.13 |
| GUCUAGCAAUAUUACGGGAA | -1.24 ± 0.086 | -0.758 ± 0.084 |
| GUCUAGCAAUAUUACGUCAU | -0.258 ± 0.12 | -0.425 ± 0.081 |
| GUCUAGCAAUAUUACGUCUU | -0.274 ± 0.09 | 1.25 ± 0.099 |
| GUCUAGCAAUAUUACGUGGA | -2.12 ± 0.23 | -2.69 ± 0.24 |
| GUCUAGCAAUAUUACGUGGC | -2.84 ± 0.44 | -3.01 ± 0.43 |
| GUCUAGCAAUAUUACGUGUC | -0.8 ± 0.089 | -0.0601 ± 0.086 |
| GUGAAGCAAUAUUACGAAAG | -1.41 ± 0.15 | -0.599 ± 0.15 |
| GUGAAGCAAUAUUACGAACG | -1.57 ± 0.4 |  |
| GUGAAGCAAUAUUACGAAGC | -2.06 ± 0.08 | -1.06 ± 0.11 |
| GUGAAGCAAUAUUACGACAG | -2.07 ± 0.16 | -1.25 ± 0.17 |

| Sequence | self-splicing fitness (ln) (30 °C) | self-splicing fitness (ln) (37 °C) |
| --- | --- | --- |
| GUGAAGCAAUAUUACGACGC | 0.482 ± 0.12 | 0.847 ± 0.17 |
| GUGAAGCAAUAUUACGAGCA | 0.204 ± 0.1 | -0.115 ± 0.14 |
| GUGAAGCAAUAUUACGAGCU | -1.12 ± 0.14 | -1.19 ± 0.21 |
| GUGAAGCAAUAUUACGCCAG | -1.09 ± 0.2 | -1.1 ± 0.22 |
| GUGAAGCAAUAUUACGCCGA | -0.95 ± 0.15 | -0.474 ± 0.16 |
| GUGAAGCAAUAUUACGCCUC | -1.22 ± 0.25 | -1.09 ± 0.48 |
| GUGAAGCAAUAUUACGCGCA | -0.00454 ± 0.099 | 0.509 ± 0.13 |
| GUGAAGCAAUAUUACGCUAC | -3.39 ± 0.27 | -1.95 ± 0.31 |
| GUGAAGCAAUAUUACGCUUG | -1.44 ± 0.11 | -0.0927 ± 0.098 |
| GUGAAGCAAUAUUACGGAUU | -0.624 ± 0.1 | -0.344 ± 0.12 |
| GUGAAGCAAUAUUACGGCCC | -0.145 ± 0.18 |  |
| GUGAAGCAAUAUUACGGCUU | -4.92 ± 0.36 | -3.3 ± 0.26 |
| GUGAAGCAAUAUUACGGGAU | -1.1 ± 0.07 | -0.971 ± 0.093 |
| GUGAAGCAAUAUUACGUAAG | -0.979 ± 0.088 | -0.0954 ± 0.13 |
| GUGAAGCAAUAUUACGUAAU | -1.19 ± 0.057 | -0.668 ± 0.069 |
| GUGAAGCAAUAUUACGUCGC | -2.77 ± 0.25 | -1.75 ± 0.18 |
| GUGAAGCAAUAUUACGUGAA | -2.63 ± 0.11 | -0.504 ± 0.12 |
| GUGAAGCAAUAUUACGUGCG | -0.0545 ± 0.077 | 0.038 ± 0.094 |
| GUGAAGCAAUAUUACGUUGU | -2.68 ± 0.17 | -1.63 ± 0.15 |
| GUGCAGCAAUAUUACGAAAU | -1.31 ± 0.084 | -0.452 ± 0.097 |
| GUGCAGCAAUAUUACGAGGC | -1.83 ± 0.31 | -2.43 ± 0.26 |
| GUGCAGCAAUAUUACGAUUU | -1.06 ± 0.1 | -0.209 ± 0.12 |
| GUGCAGCAAUAUUACGCAUC |  | -3.79 ± 0.37 |
